The source of these data is paper PMC10192925, “Rapid, scalable assay of amylin-β amyloid co-aggregation in brain tissue and blood” (The Journal of Biological Chemistry, 2023).

The target of this test is T1, Aβ40 synthetic peptide (human, UniProt P05067 672-711).
T1 construct: β amyloid, the isoform ending at the 40th amino acid (Aβ40), cut product of the amyloid precursor protein; numbers count on: the Aβ peptide; Pre-incubated at 16.2 uM at 37 C for 2 h before mixing 1:1 (volume) with amylin and incubating 24 h at 37 C; also called β amyloid; human Aβ40; source: synthetic peptide; bought: Anaspec (AS-24235)
The experiment in a line: ELISA; amylin-Aβ sandwich ELISA on solutions of peptides co-incubated at 37 C for 24 h in PBS with 0.05% sodium azide (30 uM amylin and 16.2 uM Aβ mixed 1:1); capture by the polyclonal anti-amylin P2 antibody, detection by an HRP-conjugated anti-Aβ antibody. As to conditions: both partners purified.

B1: human amylin synthetic peptide (peptide, UniProt P10997 34-70, looked up)
peptide: KCNTATCATQRLANFLVHSSNNFGAILSSTNVGSNTY
notes: Amylin (islet amyloid polypeptide), human, synthetic peptide; Pre-incubated at 30 uM in PBS with 0.05% sodium azide at 37 C for 5 h before mixing with Aβ40; also called islet amyloid polypeptide; source: synthetic peptide; bought: Anaspec (AS-60254-1)
With B1, the binding result is “binds”.
